Measured values from US20260234276A1 (DOMAIN THERAPEUTICS, published 2026).

Target: human CCR8 (human, UniProt P51685 1-355)
Assay: cell-based or functional assay

Binder | ADCC % Max lysis, NK cells Donor 3 [%] | ADCC % Max lysis, NK cells Donor 4 [%] | ADCC EC50, NK cells Donor 3 [nM] | ADCC EC50, NK cells Donor 4 [nM]
3-90 (antibody) heavy: not shown light: DVVMTQTPLSLPVSLGDQASISCRCTQSLLHTNGDTYLHWYLQKPGQSPKLLIYKVSNRFSGVPDRFSGSGSGTDFTLKISRVEAEDLGVYFCSQSTHVPYTFGGGTKLEIKRTVAAPSVFIFPPSDEQLKSGTASVVCLLNNFYPREAKVQWKVDNALQSGNSQESVTEQDSKDSTYSLSSTLTLSKADYEKHKVYACEVTHQGLSSPVTKSFNRGEC | 14 | 15 | 0.793 | 1.52
3-92 (antibody) heavy: not shown light: DVVMTQTPLSLPVSLGDQASISCRCTQSLLHTNGDTYLHWYLQKPGQSPKLLIYKVSNRFSGVPDRFSGSGSGTDFTLKISRVEAEDLGVYFCSQSTHVPYTFGGGTKLEIKRTVAAPSVFIFPPSDEQLKSGTASVVCLLNNFYPREAKVQWKVDNALQSGNSQESVTEQDSKDSTYSLSSTLTLSKADYEKHKVYACEVTHQGLSSPVTKSFNRGEC | 29 | 29 | 0.195 | 0.282
3-91 (antibody) heavy: not shown light: DVVMTQTPLSLPVSLGDQASISCRCTQSLLHTNGDTYLHWYLQKPGQSPKLLIYKVSNRFSGVPDRFSGSGSGTDFTLKISRVEAEDLGVYFCSQSTHVPYTFGGGTKLEIKRTVAAPSVFIFPPSDEQLKSGTASVVCLLNNFYPREAKVQWKVDNALQSGNSQESVTEQDSKDSTYSLSSTLTLSKADYEKHKVYACEVTHQGLSSPVTKSFNRGEC | 25 | 28 | 0.218 | 0.053

Results, then the binder that gave them:

ADCC % Max lysis, NK cells Donor 3 [%] | ADCC % Max lysis, NK cells Donor 4 [%] | ADCC EC50, NK cells Donor 3 [nM] | ADCC EC50, NK cells Donor 4 [nM] | Binder
16 | 18 | 0.291 | 0.406 | 3-102 (antibody) heavy: not shown light: DIQMTQTTSSLSASLGDRVTISCRASQDISNYLNWYQQKPDGTVKLLIYYTSRLHSGVPSRFSGSGSGTDYSLTISNLEQEDIATYFCQQGNKFPPTFGGGTKLEINRTVAAPSVFIFPPSDEQLKSGTASVVCLLNNFYPREAKVQWKVDNALQSGNSQESVTEQDSKDSTYSLSSTLTLSKADYEKHKVYACEVTHQGLSSPVTKSFNRGEC
25 | 30 | 0.00822 | 0.0489 | 3-105 (antibody) heavy: QVQLVETGGGLVRPGNSLKLSCVTSGFTFSNYRMHWLRQPPGKRLEWIAVIKVKSDNYGANYAESVKGRFTISRDDSKSSVYLQVNRLREEDTATYYCSSPTYPGSSGFAYWGQGTLVTVSAASTKGPSVFPLAPSSKSTSGGTAALGCLVKDYFPEPVTVSWNSGALTSGVHTFPAVLQSSGLYSLSSVVTVPSSSLGTQTYICNVNHKPSNTKVDKKVEPKSCDKTHTCPPCPAPELLGGPDVFLFPPKPKDTLMISRTPEVTCVVVDVSHEDPEVKFNWYVDGVEVHNAKTKPREEQYNSTYRVVSVLTVLHQDWLNGKEYKCKVSNKALPLPEEKTISKAKGQPREPQVYTLPPSRDELTKNQVSLTCLVKGFYPSDIAVEWESNGQPENNYKTTPPVLDSDGSFFLYSKLTVDKSRWQQGNVFSCSVMHEALHNHYTQKSLSLSPG light: DIQMTQTTSSLSASLGDRVTISCRASQDISNYLNWYQQKPDGTVKLLIYYTSRLHSGVPSRFSGSGSGTDYSLTISNLEQEDIATYFCQQGNKFPPTFGGGTKLEINRTVAAPSVFIFPPSDEQLKSGTASVVCLLNNFYPREAKVQWKVDNALQSGNSQESVTEQDSKDSTYSLSSTLTLSKADYEKHKVYACEVTHQGLSSPVTKSFNRGEC
